Here are results for 1 molecule from paper PMC6288126, “Structural insights into DDA1 function as a core component of the CRL4-DDB1 ubiquitin ligase” (Cell Discovery, 2018).

The target of this assay is T1, DDB1 (DNA damage-binding protein 1) (human, UniProt Q16531 1-1140).
T1 construct: triple beta-propeller (BPA, BPB, BPC) and CTD; also called free DDB1; purified DDB1; source: purified recombinant protein
In words: BLI; affinity-tagged DDA1 FL and fragments immobilised on the probe as ligand, free DDB1 as analyte at different concentrations; Kd from the dose response curve of maximal binding signals. The following applies: both partners purified.

T1 sequence (Q16531 whole entry): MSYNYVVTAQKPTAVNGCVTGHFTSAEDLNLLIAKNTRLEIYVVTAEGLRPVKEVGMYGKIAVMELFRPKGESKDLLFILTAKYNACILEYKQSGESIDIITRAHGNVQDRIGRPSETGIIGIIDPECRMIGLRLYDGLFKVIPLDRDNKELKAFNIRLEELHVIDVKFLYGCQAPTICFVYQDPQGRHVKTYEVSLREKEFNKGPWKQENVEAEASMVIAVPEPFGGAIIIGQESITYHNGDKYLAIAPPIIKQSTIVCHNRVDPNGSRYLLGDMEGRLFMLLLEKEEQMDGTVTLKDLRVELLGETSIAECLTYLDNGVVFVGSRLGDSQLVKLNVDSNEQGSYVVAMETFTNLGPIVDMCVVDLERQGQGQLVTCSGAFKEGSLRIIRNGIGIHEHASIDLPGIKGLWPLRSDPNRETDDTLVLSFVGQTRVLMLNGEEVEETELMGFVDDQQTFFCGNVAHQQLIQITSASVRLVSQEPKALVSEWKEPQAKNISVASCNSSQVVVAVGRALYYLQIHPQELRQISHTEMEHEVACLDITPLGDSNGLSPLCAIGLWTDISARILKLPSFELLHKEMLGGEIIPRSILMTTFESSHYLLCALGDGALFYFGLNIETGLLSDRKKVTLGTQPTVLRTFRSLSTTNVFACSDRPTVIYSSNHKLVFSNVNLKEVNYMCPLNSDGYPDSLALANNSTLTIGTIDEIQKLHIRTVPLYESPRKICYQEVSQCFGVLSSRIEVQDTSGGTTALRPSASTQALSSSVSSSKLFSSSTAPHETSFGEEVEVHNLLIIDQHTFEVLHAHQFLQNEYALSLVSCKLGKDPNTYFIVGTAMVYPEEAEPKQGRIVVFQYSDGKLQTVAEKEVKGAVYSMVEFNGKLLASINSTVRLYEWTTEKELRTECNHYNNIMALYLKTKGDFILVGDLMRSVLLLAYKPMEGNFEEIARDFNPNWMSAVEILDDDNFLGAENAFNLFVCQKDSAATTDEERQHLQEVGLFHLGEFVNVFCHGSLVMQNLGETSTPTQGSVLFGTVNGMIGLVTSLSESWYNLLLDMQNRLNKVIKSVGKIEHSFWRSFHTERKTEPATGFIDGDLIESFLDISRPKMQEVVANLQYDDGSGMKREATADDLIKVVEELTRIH

B1: Affinity-tagged DDA1-NT (1-28 aa) (bio-layer interferometry) (domain or fragment)
chain: not shown
notes: DDA1, N-terminal fragment DDA1-NT (1-28 aa); it may be the GST fusion of m3; source: purified recombinant protein
B1 displayed a Kd of around 45 nM.

As a reminder, the Kd is the concentration at which binding is half-saturated.
